Numbering of substitutions follows the chain as printed. Names may count otherwise.
B1: M46: G1 variant: L1 R28N; L2 G50A,L56T; H2 E54K,A57N,S58E,H61F; HC-FW3 L99T,A100V (antibody, V domains shown)
VH: EVQLVESGGGLVQPGGSLRLSCAASGFTFSNYWISWVRQAPGKGLEWVAEIRSKSDNEATFYAEAVKGRFTISRDNAKNSLYLQMNSLRAEDTAVYYCTVYFDYGLAIQNYWGQGTLVTVSS
VL: EIVLTQSPATLSLSPGERATLSCKASKNVTTYVSWYQQKPGQAPRLLIYAASNRYTGIPARFSGSGSGTDFTLTISSLEPEDFAVYYCSQSYNYPYTFGQGTKLEIK
B2: M62: G1 variant: L1 R28N,T30G; L2 A51H,L56T; H2 E54K,A57N,S58E; HC-FW3 L99T,A100V (antibody, V domains shown)
VH: B1 VH with F61H
VL: B1 VL with T30G, A50G, A51H
B3: M59: G1 variant: L1 R28N,T30D; L2 L56S; H2 E54K,A57N,S58N,H61F; HC-FW3 L99T,A100V (antibody, V domains shown)
VH: B1 VH with E58N
VL: B1 VL with T30D, A50G, T56S
B4: M51: G1 variant: L1 R28N; L2 L56I; H2 E54K,A57G; HC-FW3 L99T,A100V (antibody, V domains shown)
VH: B1 VH with N57G, E58S, F61H
VL: B1 VL with A50G, T56I
B5: M55: G1 variant: L1 R28N,T30A; L2 L56S; H2 E54K,A57N,S58E,E64D; HC-FW3 L99T,A100V (antibody, V domains shown)
VH: B1 VH with F61H, E64D
VL: B1 VL with T30A, A50G, T56S
B6: M49: G1 variant: L1 R28N; L2 G50A,L56T; H2 E54K,A57N,S58Y,H61F; HC-FW3 L99T,A100V (antibody, V domains shown)
VH: B1 VH with E58Y
VL: B1 VL
B7: M56: G1 variant: L1 R28N,T30D; L2 L56S; H2 E54K,A57N,H61F; HC-FW3 L99T,A100V (antibody, V domains shown)
VH: B1 VH with E58S
VL: B1 VL with T30D, A50G, T56S
B8: M57: G1 variant: L1 R28N,T30D; L2 L56S; H2 E54K,A57N,S58E; HC-FW3 L99T,A100V (antibody, V domains shown)
VH: B1 VH with F61H
VL: B1 VL with T30D, A50G, T56S
B9: M61: G1 variant: L1 R28N,T30G; L2 A51H; H2 E54Q,A57N,H61F; HC-FW3 L99T,A100V (antibody, V domains shown)
VH: B1 VH with K54Q, E58S
VL: B1 VL with T30G, A50G, A51H, T56L
B10: M47: G1 variant: L1 R28N; L2 G50A,L56T; H2 E54K,A57N,S58G; HC-FW3 L99T,A100V (antibody, V domains shown)
VH: B1 VH with E58G, F61H
VL: B1 VL
B11: M58: G1 variant: L1 R28N,T30D; L2 L56S; H2 E54K,A57N,S58I,H61F; HC-FW3 L99T,A100V (antibody, V domains shown)
VH: B1 VH with E58I
VL: B1 VL with T30D, A50G, T56S
B12: M48: G1 variant: L1 R28N; L2 G50A,L56T; H2 E54K,A57N,S58L; HC-FW3 L99T,A100V (antibody, V domains shown)
VH: B1 VH with E58L, F61H
VL: B1 VL
B13: M65: G1 variant: L1 R28N,T30G; L2 G50A,L56I; H2 E54K,A57C; HC-FW3 L99T,A100V (antibody, V domains shown)
VH: B1 VH with N57C, E58S, F61H
VL: B1 VL with T30G, T56I
B14: M67: G1 variant: L1 R28N,T30G; L2 L56I; H2 E54K,A57F; HC-FW3 L99T,A100V (antibody, V domains shown)
VH: B1 VH with N57F, E58S, F61H
VL: B1 VL with T30G, A50G, T56I
B15: M64: G1 variant: L1 R28N,T30G; L2 G50A; H2 E54K,A57N,S58V; HC-FW3 L99T,A100V (antibody, V domains shown)
VH: B1 VH with E58V, F61H
VL: B1 VL with T30G, T56L
B16: M53: G1 variant: L1 R28N; L2 L56I; H2 E54K,A57N,S58G; HC-FW3 L99T,A100V (antibody, V domains shown)
VH: B1 VH with E58G, F61H
VL: B1 VL with A50G, T56I
B17: M60: G1 variant: L1 R28N,T30D; L2 L56S; H2 E54K,A57N,S58R,H61F; HC-FW3 L99T,A100V (antibody, V domains shown)
VH: B1 VH with E58R
VL: B1 VL with T30D, A50G, T56S
B18: M54: G1 variant: L1 R28N,T30A; L2 G50A; H2 E54K,A57N,S58P; HC-FW3 L99T,A100V (antibody, V domains shown)
VH: B1 VH with E58P, F61H
VL: B1 VL with T30A, T56L
B19: M66: G1 variant: L1 R28N,T30G; L2 L56I; H2 E54K,A57E; HC-FW3 L99T,A100V (antibody, V domains shown)
VH: B1 VH with N57E, E58S, F61H
VL: B1 VL with T30G, A50G, T56I
B20: M63: G1 variant: L1 R28N,T30G; L2 G50A; H2 E54K,A57N,S58T; HC-FW3 L99T,A100V (antibody, V domains shown)
VH: B1 VH with E58T, F61H
VL: B1 VL with T30G, T56L
B21: M52: G1 variant: L1 R28N; L2 L56I; H2 E54K,A57N,S58A; HC-FW3 L99T,A100V (antibody, V domains shown)
VH: B1 VH with E58A, F61H
VL: B1 VL with A50G, T56I
B22: M50: G1 variant: L1 R28N; L2 G50A,L56T; H2 E54K,A57R; HC-FW3 L99T,A100V (antibody, V domains shown)
VH: B1 VH with N57R, E58S, F61H
VL: B1 VL

Target: T1, human α-CGRP (Homo sapiens, UniProt P06881)
T1 construct: 1-37 (WT); purchased; host or cells: synthetic peptide
T1 sequence (P06881 83-119 limits assumed): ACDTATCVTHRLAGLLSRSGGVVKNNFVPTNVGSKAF
Experiment: Biacore affinity of antibody G1 Fab and variants to human α-CGRP
Format: binding
Conditions: 37° C., Fab, screening mode unless underlined
Experimental: (§1) Biacore assay for affinity determination. […] All Biacore assays were conducted in HBS-EP running buffer (10 mM HEPES pH 7.4, 150 mM NaCl, 3 mM EDTA, 0.005% v/v polysorbate P20). CGRP surfaces were prepared by diluting the N-biotinylated CGRP to a concentration of less than 0.001 mg/mL into HBS-EP buffer and injecting it across the SA sensor chip using variable contact times. Low capacity surfaces, corresponding to capture levels <50 response units (RU) were used for high-resolution kinetic studies, whereas high capacity surfaces (about 800 RU of captured CGRP) were used for concentration studies, screening, and solution affinity determinations. […] Samples were typically injected for lminute at 100 μL/min and dissociation times of at least 10 minutes were allowed. After each binding cycle, surfaces were regenerated with 25 mM NaOH in 25% v/v ethanol, which was tolerated over hundreds of cycles. An entire titration series (typically generated in duplicate) was fit globally to a 1:1 Langmuir binding model using the BlAevaluation program. This returned a unique pair of association and dissociation kinetic rate constants (respectively, kon and koff) for each binding interaction, whose ratio gave the equilibrium dissociation constant (KD=koff/[…]).
(§2) High-resolution analysis of binding interactions with extremely slow offrates. […] The protocol described above was used with the following modifications. The association rate constant (kon) was determined by injecting a 2-fold titration series (in duplicate) spanning 550 nM-1 nM for 30 seconds at 100 μL/min and allowing only a 30 second dissociation phase. The dissociation rate constant (koff) was determined by injecting three concentrations (high, medium, and low) of the same titration series in duplicate for 30 seconds and allowing a 2-hour dissociation phase. The affinity (KD) of each interaction was obtained by combining the kon and koff values obtained in both types of experiments, as shown in Table 4.
(§3) The binding affinities of Fab fragments were determined by Biacore by flowing them across CGRPs on a SA chip.

α-human koff [s⁻¹]	Molecule
0.000539	B1
0.000557	B2
0.000524	B3
0.000131	B4
0.000478	B5
0.000595	B6
0.000479	B7
0.000322	B8
0.000459	B9
0.000332	B10
0.00195	B11
0.000842	B12
0.000803	B13
0.00082	B14
0.00132	B15
0.000374	B16
0.000911	B17
0.00179	B18
0.00052	B19
0.0015	B20
0.000281	B21
0.000406	B22

Target: T2, rat α-CGRP (Rattus norvegicus, UniProt P01256)
T2 construct: rat α (1-37); host or cells: synthetic peptide
T2 sequence (P01256 83-119 limits assumed): T1 sequence (P06881 83-119 limits assumed) with A1S, D3N, N25D, K35E
Experiment: Biacore affinity of antibody G1 Fab and variants to rat α-CGRP
Format: binding
Conditions: 37° C., Fab, screening mode unless underlined
Experimental: as §1, §2, §3

α-rat koff	Molecule
0.00294 s⁻¹	B1
0.00575 s⁻¹	B2
0.0123 s⁻¹	B3
0.00118 s⁻¹	B4
0.00585 s⁻¹	B5
0.0148 s⁻¹	B6
0.00935 s⁻¹	B7
0.0104 s⁻¹	B8
0.00521 s⁻¹	B9
0.00823 s⁻¹	B10
No binding	B11
0.0343 s⁻¹	B12
0.00407 s⁻¹	B13
0.00171 s⁻¹	B14
0.0234 s⁻¹	B15
0.00191 s⁻¹	B16
0.0272 s⁻¹	B17
0.00216 s⁻¹	B18
0.00511 s⁻¹	B19
0.00265 s⁻¹	B20
0.00229 s⁻¹	B21
0.0053 s⁻¹	B22
